Measured values from patent US6649166.
Ends that are not written are not given here.

Columns and labels:
[1] = molecular target: T1, HLA-DR molecule encoded by the allele HLA-DRB3*0101 (human); experiment: competition ELISA, purified HLA-DR, biotinylated tracer; minus sign = loss
T1 chain 1: not shown
T1 chain 2: not shown

[2] = molecular target: HLA-DR molecule encoded by the allele HLA-DRB1*0101 (human); experiment: as above
[3] = molecular target: T2, HLA-DR molecule encoded by the allele HLA-DRB1*1301 (human); experiment: as above
T2 chain 1: not shown
T2 chain 2: not shown

[4] = molecular target: HLA-DR molecule encoded by the allele HLA-DRB1*0401 (human); experiment: as above
[5] = molecular target: T3, HLA-DR molecule encoded by the allele HLA-DRB1*0701 (human); experiment: as above
T3 chain 1: not shown
T3 chain 2: not shown

[6] = molecular target: HLA-DR molecule encoded by the allele HLA-DRB1*0301 (human); experiment: as above
[7] = molecular target: HLA-DR molecule encoded by the allele HLA-DRB1*1101 (human); experiment: as above
[8] = molecular target: HLA-DR molecule encoded by the allele HLA-DRB1*1501 (human)
[9] = molecular target: T2, HLA-DR molecule encoded by the allele …; experiment: competition ELISA, nonbiotinylated tracer peptide against its biotinylated form
[10] = molecular target: T1, HLA-DR molecule encoded by the allele …; experiment: competition ELISA, nonbiotinylated peptide against the biotinylated tracer of that DR molecule
[11] = molecular target: T2, HLA-DR molecule encoded by the allele …; experiment: as above
[12] = molecular target: HLA-DR molecule encoded by the allele HLA-DRB1*0301 (human); experiment: competition ELISA, nonbiotinylated tracer peptide against its biotinylated form

**Q.** KMYFTLIDTKAYK (modifications not checked) [peptide N89T, analog of the peptide P85-97A] was tested. Which relative activity (ratio of IC50 to P85-97A) [1] did it give?
**A.** Its relative activity (ratio of IC50 to P85-97A) is 2 fold.

**Q.** What about the relative activity (ratio of IC50 to P85-97A) [2] of the same binder?
**A.** Its relative activity (ratio of IC50 to P85-97A) is 1 fold.

**Q.** And the relative activity (ratio of IC50 to P85-97A) [3]?
**A.** Its relative activity (ratio of IC50 to P85-97A) is 1 fold.

**Q.** And the relative activity (ratio of IC50 to P85-97A) [4]?
**A.** Its relative activity (ratio of IC50 to P85-97A) is 2 fold.

**Q.** What about the relative activity (ratio of IC50 to P85-97A) [5] of the same binder?
**A.** The relative activity (ratio of IC50 to P85-97A) was 3 fold.

**Q.** And the relative activity (ratio of IC50 to P85-97A) [6]?
**A.** The relative activity (ratio of IC50 to P85-97A) was 7 fold.

**Q.** And the relative activity (ratio of IC50 to P85-97A) [7]?
**A.** The relative activity (ratio of IC50 to P85-97A) was 2 fold.

**Q.** Which factor of increase in affinity [8] does the source give for YFVAKMYFNLIDT (modifications not checked) [API m1 peptide with glycine 84 substituted by an alanine] here?
**A.** The factor of increase in affinity was 5 fold.

**Q.** Which results are given for TERVRLVTRHIYNREE (not fully specified) [B1 21-36 (nonbiotinylated peptide)]?
**A.** IC50 [9]: 0.32 µM; IC50 [10]: 35 µM; IC50 [11]: 0.275 µM

**Q.** For AKTIAYDEEARGLE (not fully specified) [MT 2-16 (nonbiotinylated peptide)], which IC50 [12] is on record?
**A.** Its IC50 is 0.1 µM.
